IntAct's records for PubMed 31175292

B1: Signal transducer and activator of transcription 5B (Homo sapiens), P51692 (parent)
chain: MAVWIQAQQLQGEALHQMQALYGQHFPIEVRHYLSQWIESQAWDSVDLDNPQENIKATQLLEGLVQELQKKAEHQVGEDGFLLKIKLGHYATQLQNTYDRCPMELVRCIRHILYNEQRLVREANNGSSPAGSLADAMSQKHLQINQTFEELRLVTQDTENELKKLQQTQEYFIIQYQESLRIQAQFGPLAQLSPQERLSRETALQQKQVSLEAWLQREAQTLQQYRVELAEKHQKTLQLLRKQQTIILDDELIQWKRRQQLAGNGGPPEGSLDVLQSWCEKLAEIIWQNRQQIRRAEHLCQQLPIPGPVEEMLAEVNATITDIISALVTSTFIIEKQPPQVLKTQTKFAATVRLLVGGKLNVHMNPPQVKATIISEQQAKSLLKNENTRNDYSGEILNNCCVMEYHQATGTLSAHFRNMSLKRIKRSDRRGAESVTEEKFTILFESQFSVGGNELVFQVKTLSLPVVVIVHGSQDNNATATVLWDNAFAEPGRVPFAVPDKVLWPQLCEALNMKFKAEVQSNRGLTKENLVFLAQKLFNNSSSHLEDYSGLSVSWSQFNRENLPGRNYTFWQWFDGVMEVLKKHLKPHWNDGAILGFVNKQQAHDLLINKPDGTFLLRFSDSEIGGITIAWKFDSQERMFWNLMPFTTRDFSIRSLADRLGDLNYLIYVFPDRPKDEVYSKYYTPVPCESATAKAVDGYVKPQIKQVVPEFVNASADAGGGSATYMDQAPSPAVCPQAHYNMYPQNPDSVLDTDGDFDLEDTMDVARRVEELLGRPMDSQWIPHAQS

Variants of: B1
Settings: with abl1_human ABL1, P00519
abl1_human ABL1, P00519, sequence (P00519 whole entry): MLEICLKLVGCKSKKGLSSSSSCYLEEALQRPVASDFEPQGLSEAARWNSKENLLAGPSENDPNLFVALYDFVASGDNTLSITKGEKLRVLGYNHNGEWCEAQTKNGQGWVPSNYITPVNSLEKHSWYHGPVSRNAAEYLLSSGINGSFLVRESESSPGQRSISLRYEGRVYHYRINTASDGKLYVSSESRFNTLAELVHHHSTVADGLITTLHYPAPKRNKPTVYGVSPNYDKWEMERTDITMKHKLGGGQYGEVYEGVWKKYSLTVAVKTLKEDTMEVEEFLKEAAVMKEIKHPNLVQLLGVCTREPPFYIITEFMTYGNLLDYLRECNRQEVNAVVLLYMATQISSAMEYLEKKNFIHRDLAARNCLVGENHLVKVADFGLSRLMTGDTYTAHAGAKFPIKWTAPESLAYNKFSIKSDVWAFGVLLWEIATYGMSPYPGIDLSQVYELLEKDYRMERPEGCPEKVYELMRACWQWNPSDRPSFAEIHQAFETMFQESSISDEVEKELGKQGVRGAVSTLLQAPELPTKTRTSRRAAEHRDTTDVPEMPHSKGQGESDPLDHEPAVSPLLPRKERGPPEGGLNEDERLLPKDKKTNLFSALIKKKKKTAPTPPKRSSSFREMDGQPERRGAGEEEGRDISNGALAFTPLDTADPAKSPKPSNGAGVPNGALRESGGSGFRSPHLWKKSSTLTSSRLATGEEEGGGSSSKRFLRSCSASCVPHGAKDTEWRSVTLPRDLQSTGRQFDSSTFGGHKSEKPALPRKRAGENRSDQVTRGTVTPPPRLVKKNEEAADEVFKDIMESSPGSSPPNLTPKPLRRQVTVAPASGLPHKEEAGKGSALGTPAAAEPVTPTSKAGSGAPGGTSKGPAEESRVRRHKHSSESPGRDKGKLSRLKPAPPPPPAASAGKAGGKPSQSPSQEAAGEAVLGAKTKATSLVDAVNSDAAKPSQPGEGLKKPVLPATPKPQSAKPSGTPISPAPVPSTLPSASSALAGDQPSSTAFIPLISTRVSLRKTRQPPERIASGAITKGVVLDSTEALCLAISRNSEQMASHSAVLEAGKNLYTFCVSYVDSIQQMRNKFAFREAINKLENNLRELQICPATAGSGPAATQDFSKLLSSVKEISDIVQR

Row | effect of a mutation on the interaction | Variant
1 | with no effect | N642H
